Source: patent EP4484563A1

Columns and labels:
Test in all cases: cell-based or functional assay
CD14 = biological target: T1, CD14 (UniProt P08571)
T1 sequence: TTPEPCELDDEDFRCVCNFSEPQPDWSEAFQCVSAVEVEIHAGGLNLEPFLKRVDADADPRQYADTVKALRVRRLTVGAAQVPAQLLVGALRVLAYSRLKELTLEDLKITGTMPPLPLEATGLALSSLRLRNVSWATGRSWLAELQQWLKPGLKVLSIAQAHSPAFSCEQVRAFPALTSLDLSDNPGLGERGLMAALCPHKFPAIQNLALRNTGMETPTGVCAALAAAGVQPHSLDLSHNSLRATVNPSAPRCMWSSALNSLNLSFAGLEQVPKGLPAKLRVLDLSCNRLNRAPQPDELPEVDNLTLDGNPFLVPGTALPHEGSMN

[1] = biological target: T cell receptor (TCRab) (human)
human CD8a (human) = human CD8a (human) (UniProt P01732)
Chain of UniProt P01732 (P01732 22-235): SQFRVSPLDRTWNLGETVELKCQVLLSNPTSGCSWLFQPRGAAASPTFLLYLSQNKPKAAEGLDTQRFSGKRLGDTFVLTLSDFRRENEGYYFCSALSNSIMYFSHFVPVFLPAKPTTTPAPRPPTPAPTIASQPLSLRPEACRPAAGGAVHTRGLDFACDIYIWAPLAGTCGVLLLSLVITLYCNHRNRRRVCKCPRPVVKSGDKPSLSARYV

B1: membrane anchored anti-CD14 scFv (scFv)
scFv: DDVQLQQSGPGLVKPSQSLSLTCTVTGYSITSDSAWNWIRQFPGNRLEWMGYISYSGSTSYNPSLKSRISITRDTSKNQFFLQLNSVTTEDTATYYCVRGLRFAYWGQGTLVTVSSGGGGSGGGGSGGGGSDIVLTQSPASLAVSLGQRATISCRASESVDSYVNSFLHWYQQKPGQPPKLLIYRASNLQSGIPARFSGSGSRTDFTLTINPVEADDVATYYCQQSNEDPYTFGGGTKLEIK
B1 showed a percentage transduction of primary monocytes versus non-stimulated PBMCs (GFP, flow cytometry, day 7) (CD14) of under 2%.

B2: Nanobody (VHH) CD14 3RMB1 (VHH)
VHH: QVQLQESGGGLVQSGGSLRLSCAVSGSIFSIVDMGWYRQAPGKGRELVAELSDGSTNYADSVLGRFTISRDNAKNTVYLQMNSLKPEDTAVYYCNADLTGSSWSPYRYLEVWGQGTQVTVSS
In the case of B2, the percentage transduction of target negative cells (flow cytometry, 7-14 days) (CD14) is reported as under 1%.

B3: TCRab VHH (VHH)
VHH: EVQLVESGGGLVQPGGSLRLSCAASGDVHKINILGWYRQAPAKEREMVAHITIGDATDYADSAKGRFTISRDEAKNMVYLQMNSLKPEDTAVYFCRAYSRIYPYNYWGQGTLVTVSS
B3 gave a percentage transduction of target negative cells (flow cytometry, day 7) [1] of under 1%.

B4: membrane anchored VHH targeting human CD8a (VHH)
VHH: EVQLVESGGGLVQPGGSLRLSCAASGFTFDDYVIGWFRQAPGKGREGVACIRIFDRHTYYADSVKGRFTISSDNSKNTVYLQMNSLRAEDTATYYCAAGSFFGCTRPEGDMDYFGQGTLVQVQS
B4 was tested, and the percentage transduction of target negative cells (flow cytometry, day 7) (human CD8a (human)) was under 1%.
